US20240270857A1 (CHIA TAI TIANQING PHARMACEUTICAL GROUP, published 2024)
Positions count from the first letter of the chain named.

B1: hz84C4-2.3 (antibody, human IgG4 S228P, kappa, V domains shown)
VH: QVQLVQSGAEVKKPGASVKVSCKASGYFFTSYWMNWVRQAPGQGLEWMGMIYPYDSETRYAQKFQGRVTMTVDKSTSTVYMELSSLRSEDTAVYYCASSTTAFAYWGQGTLVTVSS
VL: DIQMTQSPSSLSASVGDRVTITCRASQDIGNALNWLQQKPGKAPKRLIYATSSLDPGVPSRFSGSRSGTDYTLTISSLQPEDFATYYCLQYASSPYTFGQGTKVEIKR
notes: Humanized, human IgG4 / kappa
B2: hz84C4-2.4 (antibody, human IgG4 S228P, kappa, V domains shown)
VH: B1 VH with F28Y, Y52H, Y60L, Q65K
VL: B1 VL
notes: Humanized, human IgG4 / kappa
B3: hz84C4-2.5 (antibody, human IgG4 S228P, kappa, V domains shown)
VH: B1 VH with A24V, R38N, Y52H, Y60L, Q65K
VL: B1 VL
notes: Humanized, human IgG4 / kappa

target: T1, IL-36R naturally expressed on OVCAR8 cells and on normal human epidermal keratinocytes (NHK cells) (human, UniProt Q9HB29 20-575); experiment: cell-based or functional assay
T1 sequence (looked up): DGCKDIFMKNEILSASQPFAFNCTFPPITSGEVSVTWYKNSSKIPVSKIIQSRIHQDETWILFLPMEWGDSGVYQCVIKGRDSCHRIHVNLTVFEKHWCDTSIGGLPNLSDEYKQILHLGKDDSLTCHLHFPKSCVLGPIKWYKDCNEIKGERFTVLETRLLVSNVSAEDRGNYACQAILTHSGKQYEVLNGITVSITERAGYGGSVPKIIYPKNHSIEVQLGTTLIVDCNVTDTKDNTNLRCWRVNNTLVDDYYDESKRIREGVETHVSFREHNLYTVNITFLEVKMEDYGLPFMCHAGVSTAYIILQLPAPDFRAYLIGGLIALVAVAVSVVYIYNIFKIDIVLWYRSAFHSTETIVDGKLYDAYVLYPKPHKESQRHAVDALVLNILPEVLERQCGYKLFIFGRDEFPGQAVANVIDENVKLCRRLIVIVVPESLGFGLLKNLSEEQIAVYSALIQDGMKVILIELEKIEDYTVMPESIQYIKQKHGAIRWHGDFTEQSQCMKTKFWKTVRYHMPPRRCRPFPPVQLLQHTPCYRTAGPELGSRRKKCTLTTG

Binder	IC50 (M); hIL36α; IL-8 production [M]	IC50 (M); hIL36αβγ; IL-8 production [M]	IC50 (M); hIL36β; IL-8 production [M]	IC50 (M); hIL36γ; IL-8 production [M]	Maximum inhibition rate %; hIL36α; IL-8 production [%]	Maximum inhibition rate %; hIL36αβγ; IL-8 production [%]	Maximum inhibition rate %; hIL36β; IL-8 production [%]	Maximum inhibition rate %; hIL36γ; IL-8 production [%]
B1	~9.24e-13	8.23e-11	~2.73e-11	8.76e-10	44.5	33.1	23.4	57
B2	4.68e-11	1.57e-10	6.52e-11	1.12e-11	95	95.6	92.7	101
B3	4.81e-11	6.61e-11	1.24e-11	8.4e-12	99.7	98.5	102	103

target: T2, Human IL-1Rrp2/IL-1R6 protein, His Tag (ACROBiosystems, IL2-H52H6) (human, UniProt Q9HB29 20-335); experiment: BLI (ForteBio Octet), antibody on ProA sensor, 1:1 model
T2 construct: Bought protein; the soluble protein is likely only the extracellular part; also called hIL-36R; human IL36R antigen; not shown: His tag
T2 sequence: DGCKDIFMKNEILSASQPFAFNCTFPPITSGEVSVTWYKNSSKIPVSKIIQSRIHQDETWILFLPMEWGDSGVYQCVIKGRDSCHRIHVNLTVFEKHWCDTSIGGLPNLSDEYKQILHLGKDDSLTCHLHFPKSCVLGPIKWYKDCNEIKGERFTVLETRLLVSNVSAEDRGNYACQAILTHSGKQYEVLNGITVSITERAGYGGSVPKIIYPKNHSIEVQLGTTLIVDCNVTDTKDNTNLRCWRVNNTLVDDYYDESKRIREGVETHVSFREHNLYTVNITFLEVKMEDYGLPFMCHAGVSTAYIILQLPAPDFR
Protocol: The affinity of anti-IL-36R antibodies to CynoIL36R-ECD mFc and human IL-1Rrp2/IL-IR6 protein, His Tag (ACROBiosystems, IL2-H52H6) was measured by a ForteBio molecular interaction instrument. […] And then the biosensor was used to bind CynoIL36R-ECD mFc or human IL-1Rrp2/IL-1R6 protein, His Tag which was diluted by a gradient (the initial concentration was 200 nM, 2-fold gradient dilution), the response signals were detected in real time using a Fortebio molecular interaction instrument (SARTORIUS, octet red 96e), and association and dissociation curves were obtained. After the completion of dissociation in each cycle, the biosensor was regenerated for the next capture; the procedure was repeated until the affinity of the different anti-IL-36R antibodies for IL-36R was determined. The resulting data were analyzed by Fortebio Data Analysis 11.0 software in a 1:1 (Langmuir) binding model to determine kₐ (kₒₙ) and kd (koff) values, and the dissociation constant KD was calculated by KD=kd/kₐ. The detection method essentially followed the manufacturer's recommendations, and more information could be found at www.fortebio.com.
Affinity, binding and blocking assays for humanized antibodies hz72C1-1.1, hz72C1-1.2, hz72C1-1.3, hz72C1-2.1, hz72C1-2.2 and hz72C1-2.3 as well as hz84C4-1.1, hz84C4-1.2, hz84C4-1.3, hz84C4-1.4, hz84C4-1.5, hz84C4-2.1, hz84C4-2.2, hz84C4-2.3, hz84C4-2.4 and hz84C4-2.5 were performed according to the methods of Example 4, Example 5. Example 6, Example 7 and Example 8.

Binder	Kd [nM]	koff [s⁻¹]	kon [M⁻¹ s⁻¹]
B1	0.831	5.12e-05	61600
B2	1.88	0.000196	105000
B3	1.44	0.000138	96400

target: T2, Human IL-1Rrp2/IL-1R6 protein, His Tag …; experiment: ELISA, plate coated with human IL-1Rrp2/IL-1R6 His Tag, HRP-protein A/G, OD450
Protocol: The binding activity of anti-IL-36R antibodies to IL-36R was analyzed by ELISA using human IL-1Rrp2/IL-1R6 protein, His Tag (ACROBiosystems, IL2-H52H6) and CynoIL36R-ECD mFc (for detection of chimeric and humanized antibodies), and hIL36R-ECD hFc and CynoIL36R-ECD hFc protein (for detection of hybridoma antibodies) as antigens. A 96-well plate (Costar, 9018) was coated with 2 μg/mL antigen at 100 μL/well and incubated overnight at 4° C. After the 96-well plate was washed with a washing buffer (PBS containing 0.05% v/v Tween 20), a blocking buffer (PBS containing 2% bovine serum albumin) was added for blocking at 37° C. for 2 h. After the 96-well plate was washed with the washing buffer, 100 μL of the gradient diluted anti-IL-36R antibody of the present disclosure or the reference antibody BI655130 (the initial concentration of the antibody was 66 nM, 4-fold gradient dilution) was added to each well, and the plate was incubated at room temperature for 1 h. After the 96-well plate was washed with the washing buffer, 100 μL of horseradish peroxidase-conjugated recombinant protein A/G (TheroScientific, 32490) was added to each well, and the plate was incubated at room temperature for 1 h. After the 96-well plate was washed with the washing buffer, 100 μL of a TMB solution (Thermo, 00-4201-56) was added to each well, and the plate was incubated at room temperature for 2 min. Finally, 100 μL of a stop solution (2 N H₂SO₄) was added to each well to stop the reaction. Absorbance was read at 450 nm using a microplate reader (PE, Envision), the resulting data was analyzed using GraphPad Prism, and EC₅₀ was calculated. Binding EC₅₀ of the chimeric anti-IL-36R antibodies to hIL-36R in an ELISA assay is shown in FIG. 1. and binding EC₅₀ of the chimeric anti-IL-36R antibodies to CynoIL-36R in an ELISA assay is shown in FIG. 2. The binding of BI655130 is shown as a control, and the binding of IgG4 is shown as a negative control.

Binder	EC50 [nM]
B1	2.25
B2	0.453
B3	0.497
